Experimental data: US7314726B2, “Beta secretase exosite binding peptides and methods for identifying beta secretase modulators” (Bristol-Myers Squibb Company, priority 2002, dated 2008)
“And” between values parts separate entries of the source, which are not always exact repeats. Identical values can stand only once. Like-named read-outs stand apart in the source and are kept apart here. Square brackets hold non-standard residues; d marks the D form. Peptide text beside a SMILES is read from it. Bpa = N[C@@H](Cc1ccc(C(=O)c2ccccc2)cc1)C(=O)O; Alexa488 = Alexa Fluor 488 fluorescent label

Columns and labels:
BACE [1] = molecular target: T1, BACE (Homo sapiens, UniProt P56817); test: BACE cleavage assay with MCA-[…](-dnp)-COOH substrate, HPLC analysis; format: biochemical; conditions: 0.1 nM BACE, 25 μM substrate peptide, 60 minutes at 25° C.; read-out: IC50, inhibition of proteolytic activity of BACE
Description: Molecule Y3 was tested in a BACE cleavage assay using the peptide MCA-[…](-dnp)-COOH (SEQ ID NO:107) as a substrate. The assay was carried out essentially as described in Mallender et al., (2001) Mol. Pharmacol. 59:619-626 and in Marcinkeviciene et al., (2001) J. Biol. Chem. 276: 23790-23794. A concentration of 0.1 nM BACE was incubated with Molecule Y3 at various concentrations for 15 minutes before substrate peptide was added to a final concentration of 25 μM. The reaction was allowed to proceed for 60 minutes at 25° C. before it was stopped by boiling. The reaction mixture was separated on a C18 column using reverse phase HPLC (Waters, Milford, Mass.). The IC50 value was calculated using the Langmuir isotherm equation (Copeland, R. A., Enzymes: A Practical Introduction to Structure, Mechanism, and Data Analysis, (2nd ed), Wiley-VCH, New York, N.Y. (2000)).
Target sequence in this assay (P56817 46-457 limits assumed): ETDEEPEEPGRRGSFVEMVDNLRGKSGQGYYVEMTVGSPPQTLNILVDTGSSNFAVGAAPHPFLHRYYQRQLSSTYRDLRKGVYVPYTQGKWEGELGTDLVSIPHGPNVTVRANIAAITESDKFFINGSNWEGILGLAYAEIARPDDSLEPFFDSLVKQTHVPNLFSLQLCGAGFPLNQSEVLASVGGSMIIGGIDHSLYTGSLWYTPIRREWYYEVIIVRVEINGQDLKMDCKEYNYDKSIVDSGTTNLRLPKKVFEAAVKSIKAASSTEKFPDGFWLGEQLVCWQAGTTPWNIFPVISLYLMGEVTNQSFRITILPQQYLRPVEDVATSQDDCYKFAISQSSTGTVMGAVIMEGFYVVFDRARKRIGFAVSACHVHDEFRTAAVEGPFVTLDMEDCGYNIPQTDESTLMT

[2] = molecular target: T2, catalytic domain of human BACE expressed in a CHO cell line (Homo sapiens, UniProt P56817); test: Fluorescently labeled EBP binding to BACE, fluorescence anisotropy; conditions: for Kd: pH 4.5 (50 mM acetate), 25° C., 1:1 binding model, read-out: binding constant (Kd) of labeled EBP
T2 construct: The cDNA for the catalytic domain of human BACE (residues 1-460) was PCR-amplified; human IgG1 heavy chain (C, cleaved yes); thrombin cleavage site (C); made in house; host or cells: CHO DG44 cells (stably transfected, secreted)
T2 sequence (P56817 46-460 limits assumed): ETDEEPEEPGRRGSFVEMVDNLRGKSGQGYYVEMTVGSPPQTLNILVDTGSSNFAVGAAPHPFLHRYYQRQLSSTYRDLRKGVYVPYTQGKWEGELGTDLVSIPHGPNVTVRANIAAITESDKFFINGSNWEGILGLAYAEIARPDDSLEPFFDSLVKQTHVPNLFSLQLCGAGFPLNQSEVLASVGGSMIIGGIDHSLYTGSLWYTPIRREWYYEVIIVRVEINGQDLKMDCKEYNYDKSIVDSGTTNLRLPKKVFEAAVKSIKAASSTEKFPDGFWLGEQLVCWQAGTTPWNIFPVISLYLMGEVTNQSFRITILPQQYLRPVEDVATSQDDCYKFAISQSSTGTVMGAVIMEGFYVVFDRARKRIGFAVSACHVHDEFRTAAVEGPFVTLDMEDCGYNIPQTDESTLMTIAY
Description: An assay to evaluate the binding of BACE to EBPs labeled with a fluorescent molecule (for example, but not limited to Alexa488) was developed. This assay uses the catalytic domain of human BACE expressed in a CHO cell line (according to Example 3) and labeled EBPs such as Molecule X shown in FIG. 4. The change in fluorescent anisotropy of the EBP peptide upon binding to BACE is monitored.
Peptides were dissolved in 100% DMSO (dimethyl sulfoxide) at 10 mM concentration, and then diluted 10-fold into deionized water. The concentration of the labeled peptides was determined by their absorbance at 495 nm (ε=71000 cm^−1M^−1). The concentration of selected unlabeled peptides was determined by their Tyr absorbance at 276 nm (ε=1390 cm^−1M^−1 per Tyr residue).
The binding was carried out at pH 7.1 (PBS buffer) and pH 4.5 (50 mM acetate buffer) in the presence of 1% DMSO. Fluorescence anisotropy was measured at 25° C. in an AVIV fluorometer. The excitation and emission wavelengths were set to 495 and 519 nm, respectively. The excitation and emission slit width were 4 and 10 nm, respectively. A concentrated BACE stock was used to titrate a 300 μl solution of 10 nM labeled EBP. The final BACE concentration ranges from 10 to 5000 nM. After the addition of BACE, the solution was mixed for 10 times with a pipettor. The fluorescence anisotropy was averaged over a 5 minute period.
The change in anisotropy was plotted against the BACE concentration (see, for example, FIG. 5). The Kd of the labeled EBP as well as the initial (r0) and final anisotropy (rb) of the labeled EBP were calculated from curve fitting using the program Kaleidagraph. The equation used to fit the binding data is identical to equation 1 in Lai et al., (2000) Arch. Biochem. Biophys. 381:278-284.

BACE [3] = molecular target: T1, BACE; test: Phage ELISA of phage-displayed peptides on immobilised BACE; format: binding; set-up: The cDNA for the catalytic domain of human BACE (residues 1-460) was PCR-amplified; human IgG1 heavy chain (C, cleaved yes); thrombin cleavage site (C); made in house; host or cells: CHO DG44 cells (stably transfected, secreted); conditions: peptides from solution phase panning; tested at pH 5.0
Target sequence in this assay (P56817 46-460 limits assumed): as above

[4] = Solubility of Bpa-mutated peptides in the competition assay; format: physicochemical; conditions: FIG. 11, Bpa scan; inhibition under determined
[5] = molecular target: T3, catalytic domain of BACE purified from E. coli cells (Homo sapiens, UniProt P56817); test: Binding of labeled EBP to BACE purified from E. coli cells; conditions: compared with BACE purified from CHO cells
T3 construct: the catalytic domain of BACE purified from E. coli cells; made in house; host or cells: E. coli
T3 sequence (P56817 46-457 limits assumed): as the sequence (P56817 46-457 limits assumed) above
Description: Binding of Molecule Y1 to the catalytic domain of BACE purified from E. coli cells was carried out to determine the effect of glycosylation on the EBP binding.

For “Molecule Y3: analog of Molecule Y1 with different length of linker between Alexa488 and the peptide (Ac-YPYFIPL-Alexa488; also: linker between peptide and Alexa488 not given here)”, the IC50 (BACE [1]) was 731 nM and the Kd [2] was 48 nM.
With ETWPRFIPYHALTQQTLKHQQHT the “phage ELISA binding to BACE” value (BACE [3]) was “strong and specific binding”.
With `CC[C@H](C)[C@H](NC(=O)[C@H](Cc1ccccc1)NC(=O)[C@H](Cc1ccc(O)cc1)NC(=O)[C@H](Cc1ccc(C(=O)c2ccccc2)cc1)NC(=O)[C@H](Cc1ccc(O)cc1)NC(C)=O)C(=O)N1CCC[C@H]1C(=O)N[C@@H](CC(C)C)C(N)=O` [P6B] (Ac-Y[Bpa]YFIPL-NH2) the solubility [4] was “limited solubility”.
With `CC(=O)N[C@@H](Cc1ccc(O)cc1)C(=O)N1CCC[C@H]1C(=O)N[C@@H](Cc1ccc(O)cc1)C(=O)N[C@@H](Cc1ccccc1)C(=O)N[C@@H](Cc1ccc(C(=O)c2ccccc2)cc1)C(=O)N1CCC[C@H]1C(=O)N[C@@H](CC(C)C)C(N)=O` [I9B] (Ac-YPYF[Bpa]PL-NH2) the solubility [4] was “limited solubility”.
In the case of “Molecule Y1: peptide YPYFIPL (BMS-593925) with C-terminal Alexa488 label, FIG. 4 (Ac-YPYFIPL-Alexa488; also: linker between peptide and Alexa488 not given here)”, the “binding affinity for E. coli expressed (non-glycosylated) human BACE” value [5] is reported as “the same as that of human BACE purified from CHO cells”, the “enhancement of affinity in the presence of OM99-2” value ([2]; in the presence of 10 μM OM99-2) is reported as 5 fold and the Kd ([2]; listed as Y1) is reported as 58 nM and 57 nM.
With TAEYESRTARTAPPAPTQHWPFFIRST the “phage ELISA binding to BACE” value (BACE [3]) was “strong and specific binding”.
